Data reported in patent publication US20230056815A1 (VIELA BIO, published 2023).

T1: hFLT3 receptor (human, UniProt P36888 27-541, limits assumed)
T1 construct: The construct is not described
T1 sequence (looked up): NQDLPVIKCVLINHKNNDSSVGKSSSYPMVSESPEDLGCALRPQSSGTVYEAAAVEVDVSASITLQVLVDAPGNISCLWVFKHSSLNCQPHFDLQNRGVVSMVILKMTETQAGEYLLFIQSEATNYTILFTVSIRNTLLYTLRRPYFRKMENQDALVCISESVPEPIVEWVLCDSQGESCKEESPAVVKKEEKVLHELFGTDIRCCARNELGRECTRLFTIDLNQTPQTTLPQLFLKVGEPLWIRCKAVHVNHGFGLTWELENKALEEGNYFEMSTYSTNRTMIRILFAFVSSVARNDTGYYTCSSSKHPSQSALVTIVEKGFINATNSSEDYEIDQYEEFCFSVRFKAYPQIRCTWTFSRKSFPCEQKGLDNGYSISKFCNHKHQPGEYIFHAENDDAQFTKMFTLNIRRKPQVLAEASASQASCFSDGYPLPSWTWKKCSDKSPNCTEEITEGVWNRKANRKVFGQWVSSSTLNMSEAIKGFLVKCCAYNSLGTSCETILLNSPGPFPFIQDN

T2: FLT3 on RS4;11 cells (human, UniProt P36888 27-993)
T2 sequence (looked up): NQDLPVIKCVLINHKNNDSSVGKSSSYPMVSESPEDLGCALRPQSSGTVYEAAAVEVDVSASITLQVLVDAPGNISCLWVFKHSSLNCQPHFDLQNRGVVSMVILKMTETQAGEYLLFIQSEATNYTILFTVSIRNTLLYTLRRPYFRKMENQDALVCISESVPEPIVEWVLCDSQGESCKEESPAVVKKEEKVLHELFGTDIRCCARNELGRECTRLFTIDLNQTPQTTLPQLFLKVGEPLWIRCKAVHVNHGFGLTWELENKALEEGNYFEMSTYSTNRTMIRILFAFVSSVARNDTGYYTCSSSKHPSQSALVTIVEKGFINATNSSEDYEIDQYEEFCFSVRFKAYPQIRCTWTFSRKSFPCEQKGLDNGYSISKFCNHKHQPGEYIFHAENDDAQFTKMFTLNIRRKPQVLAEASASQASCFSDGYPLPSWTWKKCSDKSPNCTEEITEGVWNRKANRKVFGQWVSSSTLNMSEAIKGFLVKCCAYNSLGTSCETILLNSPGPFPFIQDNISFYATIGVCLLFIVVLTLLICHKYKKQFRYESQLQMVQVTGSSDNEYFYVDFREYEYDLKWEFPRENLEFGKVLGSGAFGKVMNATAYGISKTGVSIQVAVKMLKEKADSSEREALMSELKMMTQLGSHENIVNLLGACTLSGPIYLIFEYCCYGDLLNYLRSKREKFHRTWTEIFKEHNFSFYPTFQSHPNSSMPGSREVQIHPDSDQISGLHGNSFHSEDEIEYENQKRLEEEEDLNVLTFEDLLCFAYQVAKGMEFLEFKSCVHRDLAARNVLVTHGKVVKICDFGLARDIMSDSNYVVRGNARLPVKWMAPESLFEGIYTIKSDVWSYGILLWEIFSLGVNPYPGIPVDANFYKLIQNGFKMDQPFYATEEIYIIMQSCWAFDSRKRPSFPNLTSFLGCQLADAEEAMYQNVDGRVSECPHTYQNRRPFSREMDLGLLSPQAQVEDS

B1: human soluble FLT3L (recombinant huFLT3L) (ligand, UniProt P49771 27-184, looked up)
chain: TQDCSFQHSPISSDFAVKIRELSDYLLQDYPVTVASNLQDEELCGGLWRLVLAQRWMERLKTVAGSKMQGLLERVNTEIHFVTKCAFQPPPSCLRFVQTNISRLLQETSEQLVALKPWITRQNFSRCLELQCQPDSSTLPPPWSPRPLEATAPTAPQP
notes: extracellular domain; also called rhuFLT3L; hFLT3L

Experiments:
[1] = target: T1, hFLT3 receptor; test: Biacore
[2] = target: T2, FLT3 on RS4;11 cells; test: cell-based or functional assay
[3] = target: T2, FLT3 on RS4;11 cells; test: flow cytometry: biotinylated rhuFLT3L on RS4;11 cells, detected with BV421-streptavidin
[4] = target: B1; test: Biacore
[5] = target: B1; test: Biacore, Fab
[6] = target: T3, cynomolgus monkey soluble FLT3L (cynomolgus monkey); test: Biacore, Fab
T3 construct: extracellular domain; also called cyno sFLT3L; cyno FLT3L

[7] = target: B1; test: Biacore, Fab; remark: listed apart in the source
[8] = target: T3, cynomolgus monkey soluble FLT3L; test: Biacore, Fab; remark: listed apart in the source
[9] = target: B1; test: Biacore, Fab, steady-state
[10] = target: T3, cynomolgus monkey soluble FLT3L; test: Biacore, Fab, steady-state
[11] = target: B1; test: Biacore, Fab, kinetic (koff/kon)
[12] = target: T3, cynomolgus monkey soluble FLT3L; test: Biacore, Fab, kinetic (koff/kon)

| Kd [1] | koff [1] | kon [1] | fold decrease in Allophycocyanin (APC) MFI, an indicator of FLT3 expression, on RS4;11 cells [2] | EC50 (read off the curve) [3] | Kd [4] | koff [4] | kon [4] | fold KD against the remaining lead antibodies [5] | fold KD against the remaining lead antibodies [6] | koff [7] | kon [7] | koff [8] | kon [8] | Kd [9] | Kd [10] | Kd [11] | Kd [12] | Binder |
| --- | --- | --- | --- | --- | --- | --- | --- | --- | --- | --- | --- | --- | --- | --- | --- | --- | --- | --- |
| 22.3 nM | 0.00812 s⁻¹ | 360000 M⁻¹ s⁻¹ | 25 fold | ~0.1 nM | – | – | – | – | – | – | – | – | – | – | – | – | – | B1 |
| – | – | – | – | – | 1160 nM | 0.0707 s⁻¹ | 60000 M⁻¹ s⁻¹ | > 50 fold | > 50 fold | 0.0707 s⁻¹ | 61000 M⁻¹ s⁻¹ | 0.0707 s⁻¹ | 61000 M⁻¹ s⁻¹ | 1600 nM | 1610 nM | 1160 nM | 1160 nM | CAT5D9 Fab (Fab, V domains shown, also called 5D9 parent) VH: QVQLVQSGAEVKKPGSSVKVSCKISGGTFSSYALSWVRQAPGQGLEWMGGIIPVFRTASYAQKFQGRVTITVDESASTGYIELSSLKSEDTATYYCASNNYVWGSYRFWGQGTTVTVSS VL: NFMLTQPHSVSESPGKTVTISCTRTSGNIAGYFVQWYQQRPGSSPTTVIYEDYQRPSGVPDRFSGSIDRSSNSASLTISGLKPDDEADYYCQSYDDTSQGVFGAGTKVTVL |
